B1: Azoarcus group I ribozyme (parent)
chain: GUGCCUUGCGCCGGGAAACCACGCAAGGGAUGGUGUCAAAUUCGGCGAAACCUAAGCGCCCGCCCGGGCGUAUGGCAACGCCGAGCCAAGCUUCGGCGCCUGCGCCGAUGAAGGUGUAGAGACUAGACGGCACCCACCUAAGGCAAACGCUAUGGUGAAGGCAUAGUCCAGGGAGUGGCGAAAGUCACACAAACCGG

Variants of: B1
Test: reverse-splicing fitness (ratio to wild type); higher = more active; in vitro selection; Mg2+ level not given
How it was run: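 An in vitro group I ribozyme library with randomized positions was T7-transcribed and gel-purified. In triplicate, 10 pmol RNA in EPPS pH 7.5 was reacted with 50 pmoles of a 30-nt RNA substrate for 1 h at 37 °C across several added MgCl2 levels (1–48 mM), then stopped with EDTA. Products were reverse transcribed from a substrate-complementary primer, PCR-amplified and sequenced (HiSeq 4000). Fitness is a variant's read proportion after selection over that before, normalised to wild type.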

Variant	reverse-splicing fitness
GUGCCUUGCGCCGGGAAACCACGCAAGGGAUGGUGUCAAAUUCGGCGAAACCUAAGCGCCCGCCCGGGCGUAUGGCAACGCCGAGCCAAGCUUCGGCGCCUGCGCCGAUGCAGGUGUAGCGACUAGACGGCACCCACCUAAGGCGAACGGUAUGGUGAAGGCAUAGUCAAGGGAGAGGCGAAAGUCACACAAACCGG	0.0133
GUGCCUUGCGCCGGGAAACCACGCAAGGGAUGGUGUCAAAUUCGGCGAAACCUAAGCGCCCGCCCGGGCGUAUGGCAACGCCGAGCCAAGCUUCGGCGCCUGCGCCGAUGCAGGUGUAGCGACUAGACGGCACCCACCUAAGGCGAACGGUAUGGUGAAGGCAUAGUCAAGGGAGCGGCGAAAGUCACACAAACCGG	0.0116
GUGCCUUGCGCCGGGAAACCACGCAAGGGAUGGUGUCAAAUUCGGCGAAACCUAAGCGCCCGCCCGGGCGUAUGGCAACGCCGAGCCAAGCUUCGGCGCCUGCGCCGAUGCAGGUGUAGCGACUAGACGGCACCCACCUAAGGCGAACGGUAUGGUGAAGGCAUAGUCAAGGGAGGGGCGAAAGUCACACAAACCGG	0.00793
GUGCCUUGCGCCGGGAAACCACGCAAGGGAUGGUGUCAAAUUCGGCGAAACCUAAGCGCCCGCCCGGGCGUAUGGCAACGCCGAGCCAAGCUUCGGCGCCUGCGCCGAUGCAGGUGUAGCGACUAGACGGCACCCACCUAAGGCGAACGGUAUGGUGAAGGCAUAGUCCAGGGAGCGGCGAAAGUCACACAAACCGG	0.0368
GUGCCUUGCGCCGGGAAACCACGCAAGGGAUGGUGUCAAAUUCGGCGAAACCUAAGCGCCCGCCCGGGCGUAUGGCAACGCCGAGCCAAGCUUCGGCGCCUGCGCCGAUGCAGGUGUAGCGACUAGACGGCACCCACCUAAGGCGAACGGUAUGGUGAAGGCAUAGUCCAGGGAGGGGCGAAAGUCACACAAACCGG	0.0072
GUGCCUUGCGCCGGGAAACCACGCAAGGGAUGGUGUCAAAUUCGGCGAAACCUAAGCGCCCGCCCGGGCGUAUGGCAACGCCGAGCCAAGCUUCGGCGCCUGCGCCGAUGCAGGUGUAGCGACUAGACGGCACCCACCUAAGGCGAACGGUAUGGUGAAGGCAUAGUCCAGGGAGAGGCGAAAGUCACACAAACCGG	0.0158
GUGCCUUGCGCCGGGAAACCACGCAAGGGAUGGUGUCAAAUUCGGCGAAACCUAAGCGCCCGCCCGGGCGUAUGGCAACGCCGAGCCAAGCUUCGGCGCCUGCGCCGAUGCAGGUGUAGCGACUAGACGGCACCCACCUAAGGCGAACGGUAUGGUGAAGGCAUAGUCGAGGGAGAGGCGAAAGUCACACAAACCGG	0.0102
GUGCCUUGCGCCGGGAAACCACGCAAGGGAUGGUGUCAAAUUCGGCGAAACCUAAGCGCCCGCCCGGGCGUAUGGCAACGCCGAGCCAAGCUUCGGCGCCUGCGCCGAUGCAGGUGUAGCGACUAGACGGCACCCACCUAAGGCGAACGGUAUGGUGAAGGCAUAGUCGAGGGAGGGGCGAAAGUCACACAAACCGG	0.00553
GUGCCUUGCGCCGGGAAACCACGCAAGGGAUGGUGUCAAAUUCGGCGAAACCUAAGCGCCCGCCCGGGCGUAUGGCAACGCCGAGCCAAGCUUCGGCGCCUGCGCCGAUGCAGGUGUAGCGACUAGACGGCACCCACCUAAGGCGAACGGUAUGGUGAAGGCAUAGUCGAGGGAGCGGCGAAAGUCACACAAACCGG	0.0119
GUGCCUUGCGCCGGGAAACCACGCAAGGGAUGGUGUCAAAUUCGGCGAAACCUAAGCGCCCGCCCGGGCGUAUGGCAACGCCGAGCCAAGCUUCGGCGCCUGCGCCGAUGCAGGUGUAGCGACUAGACGGCACCCACCUAAGGCGAACGUUAUGGUGAAGGCAUAGUCCAGGGAGUGGCGAAAGUCACACAAACCGG	0.462
GUGCCUUGCGCCGGGAAACCACGCAAGGGAUGGUGUCAAAUUCGGCGAAACCUAAGCGCCCGCCCGGGCGUAUGGCAACGCCGAGCCAAGCUUCGGCGCCUGCGCCGAUGCAGGUGUAGCGACUAGACGGCACCCACCUAAGGCGAACGGUAUGGUGAAGGCAUAGUCCAGGGAGUGGCGAAAGUCACACAAACCGG	0.0633
GUGCCUUGCGCCGGGAAACCACGCAAGGGAUGGUGUCAAAUUCGGCGAAACCUAAGCGCCCGCCCGGGCGUAUGGCAACGCCGAGCCAAGCUUCGGCGCCUGCGCCGAUGCAGGUGUAGCGACUAGACGGCACCCACCUAAGGCGAACGUUAUGGUGAAGGCAUAGUCAAGGGAGAGGCGAAAGUCACACAAACCGG	0.014
GUGCCUUGCGCCGGGAAACCACGCAAGGGAUGGUGUCAAAUUCGGCGAAACCUAAGCGCCCGCCCGGGCGUAUGGCAACGCCGAGCCAAGCUUCGGCGCCUGCGCCGAUGCAGGUGUAGCGACUAGACGGCACCCACCUAAGGCGAACGUUAUGGUGAAGGCAUAGUCAAGGGAGCGGCGAAAGUCACACAAACCGG	0.0144
GUGCCUUGCGCCGGGAAACCACGCAAGGGAUGGUGUCAAAUUCGGCGAAACCUAAGCGCCCGCCCGGGCGUAUGGCAACGCCGAGCCAAGCUUCGGCGCCUGCGCCGAUGCAGGUGUAGCGACUAGACGGCACCCACCUAAGGCGAACGGUAUGGUGAAGGCAUAGUCUAGGGAGAGGCGAAAGUCACACAAACCGG	0.0114
GUGCCUUGCGCCGGGAAACCACGCAAGGGAUGGUGUCAAAUUCGGCGAAACCUAAGCGCCCGCCCGGGCGUAUGGCAACGCCGAGCCAAGCUUCGGCGCCUGCGCCGAUGCAGGUGUAGCGACUAGACGGCACCCACCUAAGGCGAACGGUAUGGUGAAGGCAUAGUCUAGGGAGGGGCGAAAGUCACACAAACCGG	0.0071
GUGCCUUGCGCCGGGAAACCACGCAAGGGAUGGUGUCAAAUUCGGCGAAACCUAAGCGCCCGCCCGGGCGUAUGGCAACGCCGAGCCAAGCUUCGGCGCCUGCGCCGAUGCAGGUGUAGCGACUAGACGGCACCCACCUAAGGCGAACGGUAUGGUGAAGGCAUAGUCUAGGGAGCGGCGAAAGUCACACAAACCGG	0.0128
GUGCCUUGCGCCGGGAAACCACGCAAGGGAUGGUGUCAAAUUCGGCGAAACCUAAGCGCCCGCCCGGGCGUAUGGCAACGCCGAGCCAAGCUUCGGCGCCUGCGCCGAUGCAGGUGUAGCGACUAGACGGCACCCACCUAAGGCGAACGUUAUGGUGAAGGCAUAGUCAAGGGAGUGGCGAAAGUCACACAAACCGG	0.0131
GUGCCUUGCGCCGGGAAACCACGCAAGGGAUGGUGUCAAAUUCGGCGAAACCUAAGCGCCCGCCCGGGCGUAUGGCAACGCCGAGCCAAGCUUCGGCGCCUGCGCCGAUGCAGGUGUAGCGACUAGACGGCACCCACCUAAGGCGAACGAUAUGGUGAAGGCAUAGUCCAGGGAGAGGCGAAAGUCACACAAACCGG	0.0428
GUGCCUUGCGCCGGGAAACCACGCAAGGGAUGGUGUCAAAUUCGGCGAAACCUAAGCGCCCGCCCGGGCGUAUGGCAACGCCGAGCCAAGCUUCGGCGCCUGCGCCGAUGCAGGUGUAGCGACUAGACGGCACCCACCUAAGGCGAACGAUAUGGUGAAGGCAUAGUCCAGGGAGCGGCGAAAGUCACACAAACCGG	0.0663
GUGCCUUGCGCCGGGAAACCACGCAAGGGAUGGUGUCAAAUUCGGCGAAACCUAAGCGCCCGCCCGGGCGUAUGGCAACGCCGAGCCAAGCUUCGGCGCCUGCGCCGAUGCAGGUGUAGCGACUAGACGGCACCCACCUAAGGCGAACGAUAUGGUGAAGGCAUAGUCCAGGGAGGGGCGAAAGUCACACAAACCGG	0.0143
GUGCCUUGCGCCGGGAAACCACGCAAGGGAUGGUGUCAAAUUCGGCGAAACCUAAGCGCCCGCCCGGGCGUAUGGCAACGCCGAGCCAAGCUUCGGCGCCUGCGCCGAUGCAGGUGUAGCGACUAGACGGCACCCACCUAAGGCGAACGGUAUGGUGAAGGCAUAGUCUAGGGAGUGGCGAAAGUCACACAAACCGG	0.0264
GUGCCUUGCGCCGGGAAACCACGCAAGGGAUGGUGUCAAAUUCGGCGAAACCUAAGCGCCCGCCCGGGCGUAUGGCAACGCCGAGCCAAGCUUCGGCGCCUGCGCCGAUGCAGGUGUAGCGACUAGACGGCACCCACCUAAGGCGAACGGUAUGGUGAAGGCAUAGUCGAGGGAGUGGCGAAAGUCACACAAACCGG	0.00738
GUGCCUUGCGCCGGGAAACCACGCAAGGGAUGGUGUCAAAUUCGGCGAAACCUAAGCGCCCGCCCGGGCGUAUGGCAACGCCGAGCCAAGCUUCGGCGCCUGCGCCGAUGCAGGUGUAGCGACUAGACGGCACCCACCUAAGGCGAACGGUAUGGUGAAGGCAUAGUCAAGGGAGUGGCGAAAGUCACACAAACCGG	0.009
GUGCCUUGCGCCGGGAAACCACGCAAGGGAUGGUGUCAAAUUCGGCGAAACCUAAGCGCCCGCCCGGGCGUAUGGCAACGCCGAGCCAAGCUUCGGCGCCUGCGCCGAUGCAGGUGUAGCGACUAGACGGCACCCACCUAAGGCGAACGAUAUGGUGAAGGCAUAGUCUAGGGAGAGGCGAAAGUCACACAAACCGG	0.0207
GUGCCUUGCGCCGGGAAACCACGCAAGGGAUGGUGUCAAAUUCGGCGAAACCUAAGCGCCCGCCCGGGCGUAUGGCAACGCCGAGCCAAGCUUCGGCGCCUGCGCCGAUGCAGGUGUAGCGACUAGACGGCACCCACCUAAGGCGAACGAUAUGGUGAAGGCAUAGUCUAGGGAGCGGCGAAAGUCACACAAACCGG	0.024
GUGCCUUGCGCCGGGAAACCACGCAAGGGAUGGUGUCAAAUUCGGCGAAACCUAAGCGCCCGCCCGGGCGUAUGGCAACGCCGAGCCAAGCUUCGGCGCCUGCGCCGAUGCAGGUGUAGCGACUAGACGGCACCCACCUAAGGCGAACGAUAUGGUGAAGGCAUAGUCUAGGGAGGGGCGAAAGUCACACAAACCGG	0.00728
GUGCCUUGCGCCGGGAAACCACGCAAGGGAUGGUGUCAAAUUCGGCGAAACCUAAGCGCCCGCCCGGGCGUAUGGCAACGCCGAGCCAAGCUUCGGCGCCUGCGCCGAUGCAGGUGUAGCGACUAGACGGCACCCACCUAAGGCGAACGAUAUGGUGAAGGCAUAGUCUAGGGAGUGGCGAAAGUCACACAAACCGG	0.0324
GUGCCUUGCGCCGGGAAACCACGCAAGGGAUGGUGUCAAAUUCGGCGAAACCUAAGCGCCCGCCCGGGCGUAUGGCAACGCCGAGCCAAGCUUCGGCGCCUGCGCCGAUGCAGGUGUAGCGACUAGACGGCACCCACCUAAGGCGAACGAUAUGGUGAAGGCAUAGUCGAGGGAGCGGCGAAAGUCACACAAACCGG	0.0253
GUGCCUUGCGCCGGGAAACCACGCAAGGGAUGGUGUCAAAUUCGGCGAAACCUAAGCGCCCGCCCGGGCGUAUGGCAACGCCGAGCCAAGCUUCGGCGCCUGCGCCGAUGCAGGUGUAGCGACUAGACGGCACCCACCUAAGGCGAACGAUAUGGUGAAGGCAUAGUCGAGGGAGAGGCGAAAGUCACACAAACCGG	0.0148
GUGCCUUGCGCCGGGAAACCACGCAAGGGAUGGUGUCAAAUUCGGCGAAACCUAAGCGCCCGCCCGGGCGUAUGGCAACGCCGAGCCAAGCUUCGGCGCCUGCGCCGAUGCAGGUGUAGCGACUAGACGGCACCCACCUAAGGCGAACGAUAUGGUGAAGGCAUAGUCGAGGGAGGGGCGAAAGUCACACAAACCGG	0.00696

Reference: the RNAGym collection of RNA variant scans (doi:10.1093/molbev/msab373)
